Measured values published in patent publication US20260207766A1 (Bristol-Myers Squibb, published 2026).

T1: full-length human CEACAM5 (recombinant, internally generated) (human, UniProt P06731 35-685, limits assumed)
T1 construct: Printed only as 'full-length'; also called Full-length huCEACAM5; biotinylated human CEACAM5
T1 sequence: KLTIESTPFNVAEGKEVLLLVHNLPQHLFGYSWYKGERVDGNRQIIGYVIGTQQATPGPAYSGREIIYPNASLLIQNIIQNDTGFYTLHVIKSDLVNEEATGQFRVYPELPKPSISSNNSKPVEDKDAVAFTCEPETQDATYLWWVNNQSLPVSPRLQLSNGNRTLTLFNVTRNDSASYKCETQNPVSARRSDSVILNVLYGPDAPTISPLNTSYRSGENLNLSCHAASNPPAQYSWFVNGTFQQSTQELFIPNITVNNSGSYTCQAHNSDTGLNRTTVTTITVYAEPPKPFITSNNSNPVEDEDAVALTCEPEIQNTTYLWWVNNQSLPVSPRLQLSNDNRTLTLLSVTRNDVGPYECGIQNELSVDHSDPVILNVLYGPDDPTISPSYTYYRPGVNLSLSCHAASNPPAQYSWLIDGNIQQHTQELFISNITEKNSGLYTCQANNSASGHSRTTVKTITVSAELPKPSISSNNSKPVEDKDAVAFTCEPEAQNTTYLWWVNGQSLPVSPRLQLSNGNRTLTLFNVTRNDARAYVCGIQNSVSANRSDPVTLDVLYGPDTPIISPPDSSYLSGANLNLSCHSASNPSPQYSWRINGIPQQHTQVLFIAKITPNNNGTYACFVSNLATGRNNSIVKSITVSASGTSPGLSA

T2: human CEACAM6 on HCT116 cells (human, UniProt P40199 35-320)
T2 construct: whole, on cells; also called HCT116-huCEACAM6
T2 sequence (looked up): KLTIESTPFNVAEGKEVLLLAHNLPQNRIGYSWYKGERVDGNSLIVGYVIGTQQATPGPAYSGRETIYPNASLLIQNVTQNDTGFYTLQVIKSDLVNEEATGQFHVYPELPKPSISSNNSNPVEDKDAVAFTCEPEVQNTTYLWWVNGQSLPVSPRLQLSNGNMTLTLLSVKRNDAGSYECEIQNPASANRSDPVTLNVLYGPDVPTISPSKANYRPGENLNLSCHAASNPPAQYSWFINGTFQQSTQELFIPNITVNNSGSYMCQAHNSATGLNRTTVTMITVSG

T3: human CEACAM5 on cells (human, UniProt P06731 35-685)
T3 construct: Endogenous on MKN45, Ls174T, BxPC-3; overexpressed on HCT116; also called huCEACAM5; HCT116-huCEACAM5
T3 sequence: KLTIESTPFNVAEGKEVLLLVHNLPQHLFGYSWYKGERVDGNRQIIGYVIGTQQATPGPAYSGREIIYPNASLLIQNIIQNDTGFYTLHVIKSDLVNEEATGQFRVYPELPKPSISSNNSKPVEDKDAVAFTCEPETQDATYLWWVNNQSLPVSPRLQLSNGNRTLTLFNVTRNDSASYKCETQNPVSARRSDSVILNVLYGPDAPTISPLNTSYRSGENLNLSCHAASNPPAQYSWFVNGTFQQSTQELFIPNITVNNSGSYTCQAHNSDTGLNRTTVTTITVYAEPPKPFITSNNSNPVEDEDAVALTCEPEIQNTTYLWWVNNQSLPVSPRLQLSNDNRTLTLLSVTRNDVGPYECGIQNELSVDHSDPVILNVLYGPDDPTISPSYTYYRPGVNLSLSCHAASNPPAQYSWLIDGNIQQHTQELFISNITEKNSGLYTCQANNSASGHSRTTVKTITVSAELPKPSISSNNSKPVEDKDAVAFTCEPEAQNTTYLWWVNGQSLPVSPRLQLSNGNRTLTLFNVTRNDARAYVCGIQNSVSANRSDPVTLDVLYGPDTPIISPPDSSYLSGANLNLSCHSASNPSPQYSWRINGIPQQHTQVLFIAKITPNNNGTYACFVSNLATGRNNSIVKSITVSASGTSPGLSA

T4: human CEACAM7 (R&D Systems catalog #9010-CM-050) (human, UniProt Q14002 36-242, limits assumed)
T4 sequence (looked up): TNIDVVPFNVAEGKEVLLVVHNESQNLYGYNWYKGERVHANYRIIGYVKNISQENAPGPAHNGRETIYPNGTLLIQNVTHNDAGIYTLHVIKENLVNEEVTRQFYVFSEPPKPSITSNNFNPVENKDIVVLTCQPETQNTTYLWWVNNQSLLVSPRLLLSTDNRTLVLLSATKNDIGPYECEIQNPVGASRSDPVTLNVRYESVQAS

T5: human CEACAM8 (R&D Systems catalog #9639-CM-050) (human, UniProt P31997 35-320, limits assumed)
T5 sequence (looked up): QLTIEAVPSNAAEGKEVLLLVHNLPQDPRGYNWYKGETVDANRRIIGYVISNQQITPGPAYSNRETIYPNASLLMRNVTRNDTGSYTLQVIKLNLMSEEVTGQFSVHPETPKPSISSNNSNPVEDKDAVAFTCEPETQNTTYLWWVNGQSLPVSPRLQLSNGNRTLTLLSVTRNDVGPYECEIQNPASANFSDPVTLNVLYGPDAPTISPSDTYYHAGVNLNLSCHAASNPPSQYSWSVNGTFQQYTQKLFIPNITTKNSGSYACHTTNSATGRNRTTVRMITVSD

T6: human CEACAM1 on CHO-S cells (human, UniProt P13688 35-526)
T6 construct: whole, on cells; also called CHO-S-huCEACAM1
T6 sequence (looked up): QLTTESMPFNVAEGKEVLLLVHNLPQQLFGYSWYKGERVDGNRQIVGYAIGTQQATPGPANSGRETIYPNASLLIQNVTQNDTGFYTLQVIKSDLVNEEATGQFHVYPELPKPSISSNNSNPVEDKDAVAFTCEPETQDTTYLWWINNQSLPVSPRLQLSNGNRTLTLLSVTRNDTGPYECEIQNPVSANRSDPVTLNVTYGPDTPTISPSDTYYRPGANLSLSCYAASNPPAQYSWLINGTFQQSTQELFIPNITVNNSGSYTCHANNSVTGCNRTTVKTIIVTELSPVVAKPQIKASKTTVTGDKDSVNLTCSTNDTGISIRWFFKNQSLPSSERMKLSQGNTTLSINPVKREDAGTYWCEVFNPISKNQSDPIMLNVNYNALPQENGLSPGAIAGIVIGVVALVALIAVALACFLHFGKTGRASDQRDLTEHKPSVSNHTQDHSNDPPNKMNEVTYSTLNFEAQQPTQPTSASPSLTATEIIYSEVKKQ


How the values were obtained:
[1] = biological target: T1, full-length human CEACAM5 (recombinant, …); experiment: SPR Biacore, mAb captured on anti-human Fc, full-length antigen analyte, 1:1 fit
Text: The BIACORE® instrument was primed with 1×HBSP+ running buffer (Cytiva catalog no. BR100671). The CM5 chip (Cytiva catalog no. 29149604) was equilibrated to room temperature, and the BIACORE® instrument was re-primed. A human antibody Fc capture kit (Cytiva catalog no. 29234600) was utilized for this analysis. The human antibody Fc capture reagent was immobilized to both flow cells in all 8 flow channels of the CM5 chip via amine-coupling using the following conditions. Immobilization was performed at a temperature of 25° C. The anti-human Fc capture reagent was diluted to a concentration of 25 μg/mL in acetate pH5 buffer. The chip surface was activated by injecting a mixture of 1-ethyl-3-(-3-dimethylaminopropyl) carbodiimide hydrochloride (EDC) and N-hydroxy succinimide (NHS) for 420 seconds at a rate of 10 microliters per minute (uL/min). A concentration (25 ug/mL) of anti-human Fc capture reagent was then injected on the surface for 420 seconds at a rate of 10 uL/min. The remaining chip surface was blocked by injecting ethanolamine for 420 seconds at a rate of 10 uL/min.
The SPR kinetics against full-length human and cyno CEACAM5 were set up as follows. The antibody capture was performed by diluting the antibodies to a concentration of 10 nM in HBSP+ buffer. The 10 nM mAbs were captured for 20 seconds at 5 uL/min to achieve capture levels of approximately 100 RU. […] The association rate was 180 seconds at 30 uL/min. The dissociation rate was 600 seconds at 30 uL/min. Regeneration was performed using two injections of 3M magnesium chloride MgCl₂ for 30 seconds at 30 uL/min. A data fit was performed using a 1:1 binding model with global Rmax. Rmax reflects the maximal response when all ligand is occupied.

[2] = biological target: T2, human CEACAM6 on HCT116 cells; experiment: flow cytometry on HCT-116 (CEACAM-6) cells
[3] = biological target: T3, human CEACAM5 on cells; experiment: FACS on MKN45 cells
[4] = biological target: T3, human CEACAM5 on cells; experiment: FACS on BxPC3 cells
[5] = biological target: T3, human CEACAM5 on cells; experiment: FACS on LS174T cells
[6] = biological target: T3, human CEACAM5 on cells; experiment: cell-based or functional assay
[7] = biological target: T4, human CEACAM7 (R&D Systems catalog …); experiment: SPR
[8] = biological target: T5, human CEACAM8 (R&D Systems catalog …); experiment: SPR
[9] = biological target: T6, human CEACAM1 on CHO-S cells; experiment: flow cytometry on CHO-S (CEACAM-1) cells

Binder	Kd [1] [nM]	koff [1] [s⁻¹]	kon [1] [M⁻¹ s⁻¹]	binding result [2]	EC50 [3] [nM]	EC50 [4] [nM]	EC50 [5] [nM]	binding result [7]	binding result [8]	binding result [9]	Ls174T 5-day cytotoxicity (AUC), antibody conjugated to Compound A' [6]	MKN45 5-day cytotoxicity (AUC), antibody conjugated to Compound A' [6]	Ls174T 5-day cytotoxicity (AUC) [6]	MKN45 5-day cytotoxicity (AUC) [6]
MBP003 (antibody, V domains shown, also called hIgG1 form of MBP004) VH: QVQLVESGGGVVQPGRSLRLSCAASGITFSSHGMHWVRQAPGKGLEWVTFISYDGSYKSYVDSVKGRFTISRDNSKNTLYLQMNSLRAEDTAVYYCATGLTGTGAFDIWGQGTMVTVSS VL: not shown	23.4	0.000982	42000	no binding (tested: 300 nM)	2.4	1.9	1.7	no binding	no binding	no binding (tested: 300 nM)	18500	24400		
MBP004 (antibody, V domains shown) VH: QVQLVESGGGVVQPGRSLRLSCAASGITFSSHGMHWVRQAPGKGLEWVTFISYDGSYKSYVDSVKGRFTISRDNSKNTLYLQMNSLRAEDTAVYYCATGLTGTGAFDIWGQGTMVTVSS VL: not shown	17.3	0.00131	76000										865	2380

Continued, in another order:

Kd [1] [nM]	koff [1] [s⁻¹]	kon [1] [M⁻¹ s⁻¹]	binding result [2]	EC50 [3] [nM]	EC50 [4] [nM]	EC50 [5] [nM]	binding result [7]	binding result [8]	binding result [9]	Binder	Ls174T 5-day cytotoxicity (AUC), antibody conjugated to Compound A' [6]	MKN45 5-day cytotoxicity (AUC), antibody conjugated to Compound A' [6]	Ls174T 5-day cytotoxicity (AUC) [6]	MKN45 5-day cytotoxicity (AUC) [6]
14.2	0.000671	47100								MBP011 (antibody, IgG1, V domains shown) VH: QVQLVESGGGVVQPGRSLRLSCAASGITFSSHGMHWVRQAPGKGLEWVTFISYDGSIKSYVDSVKGRFTISRDNSKNTLYLQMNSLRAEDTAVYYCATGLTGTGAFDIWGQGTMVTVSS VL: not shown			939	1770
2.78	0.00048	172000								MBP009 (antibody, IgG1, V domains shown) VH: QVQLVESGGGVVQPGRSLRLSCAASGIYFSSHGMHWVRQAPGKGLEWVTFISYDGSYKSYVDSVKGRFTISRDNSKNTLYLQMNSLRAEDTAVYYCATGLTGTGAFDIWGQGTMVTVSS VL: not shown			1040	2200
